Kd, koff and kon data for two molecules are collected here from paper PMC12159680, “Nuclear protein FNBP4: A novel inhibitor of non-diaphanous formin FMN1-mediated actin cytoskeleton dynamics” (The Journal of Biological Chemistry, 2025).

For orientation: Kd means a measure of binding affinity in units of concentration. The term koff denotes the first-order rate constant of dissociation. A higher koff goes with fast dissociation. Usually kon stands for a measure of how fast the partners come together.

For assay [1], the target named is FMN1 FH1-FH2 (Mus musculus) (UniProt Q05860). The settings on record: cited from earlier work.
The target in assay [2] is T1, Extended FH2 FMN1 (mouse, UniProt Q05860 961-1466).
T1 sequence (looked up): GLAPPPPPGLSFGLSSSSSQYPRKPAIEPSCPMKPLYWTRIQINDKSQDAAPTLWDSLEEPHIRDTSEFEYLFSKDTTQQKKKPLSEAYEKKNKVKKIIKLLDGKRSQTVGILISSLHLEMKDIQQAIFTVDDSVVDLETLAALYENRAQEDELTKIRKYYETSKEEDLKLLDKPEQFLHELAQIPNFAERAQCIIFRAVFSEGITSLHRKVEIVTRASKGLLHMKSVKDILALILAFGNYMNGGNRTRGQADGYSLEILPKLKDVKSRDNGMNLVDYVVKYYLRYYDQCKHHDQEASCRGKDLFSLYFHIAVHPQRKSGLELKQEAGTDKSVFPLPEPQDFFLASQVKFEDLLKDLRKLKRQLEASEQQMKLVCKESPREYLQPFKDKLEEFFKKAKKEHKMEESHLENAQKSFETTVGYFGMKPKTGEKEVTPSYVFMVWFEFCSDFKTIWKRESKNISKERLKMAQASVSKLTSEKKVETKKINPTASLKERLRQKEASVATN
Put plainly: SPR; Biacore T200; WW1-WW2 FNBP4 amine-coupled to a CM5 chip (1016.5 RU); Extended FH2 FMN1 flowed over at various concentrations; HBS-N running buffer; 25 °C; association 120 s, dissociation 380 s; global fit to a 1:1 Langmuir model. The settings on record: both partners purified. (SPR reads the build-up and loss of mass on a sensor chip optically.)

FMN1 FH1-FH2 (Mus musculus), sequence (Q05860 870-1435): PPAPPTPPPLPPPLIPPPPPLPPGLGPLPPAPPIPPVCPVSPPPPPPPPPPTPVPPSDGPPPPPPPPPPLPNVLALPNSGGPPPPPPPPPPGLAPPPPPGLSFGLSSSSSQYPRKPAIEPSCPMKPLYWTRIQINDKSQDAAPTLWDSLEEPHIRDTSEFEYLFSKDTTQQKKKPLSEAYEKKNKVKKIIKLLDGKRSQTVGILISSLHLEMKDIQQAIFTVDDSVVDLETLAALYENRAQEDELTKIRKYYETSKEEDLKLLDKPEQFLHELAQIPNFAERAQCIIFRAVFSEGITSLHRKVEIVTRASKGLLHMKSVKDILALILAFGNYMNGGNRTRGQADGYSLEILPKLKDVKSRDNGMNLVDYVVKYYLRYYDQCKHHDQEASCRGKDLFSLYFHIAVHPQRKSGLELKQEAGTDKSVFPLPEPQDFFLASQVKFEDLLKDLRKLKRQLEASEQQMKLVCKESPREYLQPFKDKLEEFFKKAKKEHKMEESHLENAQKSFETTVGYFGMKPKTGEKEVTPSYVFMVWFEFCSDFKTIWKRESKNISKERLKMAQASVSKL

As for FNBP4 WW1-WW2 (from UniProt Q6ZQ03), the Kd in assay [1] was 2 nM.

B1: N-terminal WW1-WW2 FNBP4 (domain or fragment, human, UniProt Q8N3X1 214-629, looked up)
chain: GIEMGDWQEVWDENTGCYYYWNTQTNEVTWELPQYLATQVQGLQHYQPSSVPGAETSFVVNTDIYSKEKTISVSSSKSGPVIAKREVKKEVNEGIQALSNSEEEKKGVAASLLAPLLPEGIKEEEERWRRKVICKEEPVSEVKETSTTVEEATTIVKPQEIMLDNIEDPSQEDLCSVVQSGESEEEEEQDTLELELVLERKKAELRALEEGDGSVSGSSPRSDISQPASQDGMRRLMSKRGKWKMFVRATSPESTSRSSSKTGRDTPENGETAIGAENSEKIDENSDKEMEVEESPEKIKVQTTPKVEEEQDLKFQIGELANTLTSKFEFLGINRQSISNFHVLLLQTETRIADWREGALNGNYLKRKLQDAAEQLKQYEINATPKGWSCHWDRDHRRYFYVNEQSGESQWEFPDG
As to B1, in assay [2], the Kd turned out to be 36.5 nM, the koff stood at 0.000803 s⁻¹ and the kon stood at 22500 M⁻¹ s⁻¹.
